Measured values taken from patent US20260055154A1 (CHENGDU AODA BIOTECHNOLOGY, published 2026).
Starred links: 1 amine or outer side, 2 acyl side, 3 side chain; linkers in the order of their positions; H or OH if unused. Non-standard residues stand in square brackets, D forms with d. Groups on a side chain read outwards from the residue. No end group written: not given here. *: point of attachment. C20 diacid = O=C(O)CCCCCCCCCCCCCCCCCCC(=O)*; γGlu = O=C(O)[C@H](CCC(=O)[*:2])N[*:1]; AEEA = NCCOCCOCC(=O)O; Aib = CC(C)(N)C(=O)O

target: glucagon (Gcg) receptor; experiment: cell-based or functional assay

Going from H[Aib]QGTFTSDYSKYLDEKKAK([Gly-Gly-Glu-Gly-Glu-Gly-γGlu-C20 diacid])EFVEWLLEGGPSSGAPPPS-NH2 [Compound 4] to H[Aib]QGTFTSDYSKYLDEKKAK([AEEA-AEEA-γGlu-C20 diacid])EFVEWLLEGGPSSGAPPPS-NH2 [Compound 1], the “Biological activity (%) (cAMP chemiluminescence, RLU, CHO-K1 cells stably expressing GcgR; relative to OXM3)” value rises from 49.6% to 90.5%.

Going from H[Aib]QGTFTSDYSKYLDEKKAK([PEG5CH2CO-γGlu-C20 diacid])EFVEWLLEGGPSSGAPPPS-NH2 [Compound 2] to H[Aib]QGTFTSDYSKYLDEKKAKEFVEWLLEGGPSSGAPPPS-NH2 (not fully specified (residue 20)) [Compound 3], the “Biological activity (%) (cAMP chemiluminescence, RLU, CHO-K1 cells stably expressing GcgR; relative to OXM3)” value rises from 86.9% to 94.2%.

target: glucagon-like peptide-1 (GLP-1) receptor; experiment: cell-based or functional assay

Compared with H[Aib]QGTFTSDYSKYLDEKKAK([Gly-Gly-Glu-Gly-Glu-Gly-γGlu-C20 diacid])EFVEWLLEGGPSSGAPPPS-NH2 [Compound 4], H[Aib]QGTFTSDYSKYLDEKKAK([AEEA-AEEA-γGlu-C20 diacid])EFVEWLLEGGPSSGAPPPS-NH2 [Compound 1] is higher in “Relative biological activity (cAMP chemiluminescence, RLU, CHO-K1 cells stably expressing GLP-1R; relative to OXM3)” value: 116% for the first, 188% for the second.

Compared with H[Aib]QGTFTSDYSKYLDEKKAK([PEG5CH2CO-γGlu-C20 diacid])EFVEWLLEGGPSSGAPPPS-NH2 [Compound 2], H[Aib]QGTFTSDYSKYLDEKKAKEFVEWLLEGGPSSGAPPPS-NH2 (not fully specified (residue 20)) [Compound 3] is lower in “Relative biological activity (cAMP chemiluminescence, RLU, CHO-K1 cells stably expressing GLP-1R; relative to OXM3)” value: 260% for the first, 158% for the second.
